Legend:
[1] = D-aminoacylase activity assay (20 mM N-acetyl-D-tryptophan, TNBS method); format: biochemical
Method: The enzyme reaction can be achieved by incubating 1.0 ml of a reaction solution containing 20 mM N-acetyl-D-tryptophan (Sigma), 50 mM Tris-hydrochloride buffer (pH 7.5), and an enzyme solution at 30° C. for 10 minutes. Then, the reaction is stopped by adding 0.5 ml of a stop solution containing TCA (comprising 0.11 M trichloroacetic acid, 0.22 M sodium acetate, and 0.33 M acetic acid). The amount of D-tryptophan produced can be determined by TNBS method (Biosci. Biotech. Biochem., 58, 24 (1994)).
For example, 0.25 ml of 100 mM Na2B4O7 is added to 0.25 ml of the stop solution, 10 μl of 110 mM TNBS (trinitrobenzenesulfonic acid) solution is added to the mixed solution, and immediately thereafter, the resulting mixture is stirred. After the mixture is allowed to stand for five minutes, 1 ml of 100 mM NaHPO4 containing 1.5 mM Na2SO3 is added to the mixture to stop the color reaction. Then, the absorbance of the solution is determined at 420 nm. One unit of the enzyme activity is defined as the amount of enzyme that catalyzes the production of 1 μmol of D-tryptophan at 30° C. for one minute.

[2] = Activity of the cloned, purified enzyme to N-acetyl-L-tryptophan; format: biochemical; conditions: cloned enzyme purified from E. coli
Source text: The present inventors focused on the fact that the D-aminoacylase derived from Alcaligenes denitrificans subsp. xylosoxydans MI-4 strain has an exceedingly high specific activity (404 U/mg) to N-acetyl-D-methionine. According to references, the D-aminoacylase had only 20 U/mg or lower activity to N-acetyl-D-tryptophan. The present inventors cloned the gene encoding the enzyme into E. coli, purified the cloned enzyme, and measured its specific activity. […] Thus, this enzyme can be useful to produce D-tryptophan from N-acetyl-DL-tryptophan.

[3] = Second generation mutants: activity of producing D-tryptophan (TNBS Abs. 420 / OD600); format: cell-based, E. coli JM109; conditions: 5% N-acetyl-DL-tryptophan and 2% N-acetyl-L-tryptophan
Method: Three types of the E. coli transformant libraries obtained in Example 11 were inoculated on an LB agar plate. Each colony grown on the plate was inoculated with a toothpick to a well of a microtiter plate which contained 150 μl of LB culture medium containing 50 μg/ml ampicillin and 0.02 mM IPTG, and then the microtiter plate was covered with Breathable Sealing Membrane (Nalgene). The microtiter plate was incubated at 37° C. for 18 hours while being shaken. 10 μl of the culture medium solution was added to the reaction solution containing 300 mM Tris-hydrochloride buffer (pH 8.0), 0.1% cetylpyridinium bromide, 5% N-acetyl-DL-tryptophan, 1% N-acetyl-L-tryptophan, and distilled water in the wells of a microtiter plate. The plate was incubated at 25° C. for 1 hour while being shaken. Then, D-tryptophan produced from N-acetyl-D-tryptophan was quantified by colorimetry according to the TNBS method. […]
(§1) The amino acid substitution in each mutant, and the effect of the amino acid substitution, which was estimated as an activity of producing D-tryptophan in the presence of 5% N-acetyl-DL-tryptophan and 2% N-acetyl-L-tryptophan, are shown in Table 2. The “activity”, as used herein, refers to “a colorimetric value of the reaction solution determined at the end of reaction by the TNBS method (Abs. 420)/the degree of bacterial growth (OD600)”.

[4] = Third generation mutants: activity of producing D-tryptophan (TNBS method); format: cell-based, E. coli JM109; conditions: 2% N-acetyl-DL-tryptophan, 3.5% N-acetyl-L-tryptophan, 25° C., 30 minutes
Source text: as §1
Cells of the E. coli transformant obtained in Example 9 were inoculated on an LB agar plate. Each colony grown on the plate was inoculated with a toothpick to a well of a microtiter plate which contained 150 μl of LB culture medium containing 50 μg/ml ampicillin and 0.02 mM IPTG, and then the microtiter plate was covered with Breathable Sealing Membrane (Nalgene). The microtiter plate was incubated at 37° C. for 18 hours while being shaken. 10 μl of the culture medium solution was added to the reaction solution containing 300 mM Tris-hydrochloride buffer (pH 8.0), 0.1% cetylpyridinium bromide, 2% N-acetyl-DL-tryptophan, 3.5% N-acetyl-L-tryptophan, and distilled water in the wells of a microtiter plate. The plate was incubated at 25° C. for 30 minutes while being shaken. Then, D-tryptophan produced from N-acetyl-D-tryptophan was quantified by colorimetry according to the TNBS method using D-tryptophan as standard. […]

[5] = Production of D-tryptophan from N-acetyl-DL-tryptophan using cell-free extract (10 U/mL); format: biochemical; conditions: for Yield of D-Trp: 10 U/mL reaction solution, 30° C., 24 hours
Method: Wild-type or mutant D-aminoacylase extract can be obtained by, for example, recovering microbial cells by filtration and centrifugation, suspending them in a buffer, and disrupting them using a Bead-Beater (BIOSPEC PRODUCT). Reaction solutions containing 10 U/mL enzyme thus obtained 300 mM Tris-hydrochloride buffer (pH 8.0), and 12%, 15%, 17%, 20% or 22% N-acetyl-DL-tryptophan, are incubated at 30° C. for 24 hours while being shaken. Thus, D-tryptophan can be produced in 80% or higher yield from 12%, 15%, or 17% substrate, or in 50% or higher yield from 20% or 22% substrate.
0.5 ml of a reaction solution containing 5 units of cell-free extract obtained in the step of enzyme purification described in Example 19 or Example 23, 12%, 15%, 17%, 20%, or 22% N-acetyl-DL-tryptophan, and 300 mM Tris-hydrochloride buffer (pH 8.0) was incubated at 30° C. for 24 hours while being stirred. While with the wild type the yield of D-tryptophan was lower than 10% at any substrate concentration, with the mutant 3AD-0089 the yield of D-tryptophan was 80% or higher at substrate concentrations of up to 17%. Furthermore, the mutant was confirmed to enable the production of D-tryptophan in 66% yield in the presence of 20% substrate, or in 58% yield in the presence of 22% substrate.

[6] = according to references; cited from earlier work

B1: wild-type: D-aminoacylase derived from Alcaligenes denitrificans subsp. xylosoxydans MI-4, SEQ ID NO: 1 (protein)
chain: MSQSDSQPFDLLLAGGTLIDGSNTPGRRADLGVRGDRIAAIGDLSDAAAHTRVDVSGLVVAPGFIDSHTHDDNYLLRRRDMTPKISQGVTTVVTGNCGISLAPLAHANPPAPLDLLDEGGSYRFERFADYLDALRATPAAVNAACMVGHSTLRAAVMPDLQRAATDEEIAAMRDLAEEAMASGAIGISTGAFYPPAARATTEEIIEVCRPLSAHGGIYATHMRDEGEHIVAALEETFRIGRELDVPVVISHHKVMGQPNFGRSRETLPLIEAAMARQDVSLDAYPYVAGSTMLKQDRVLLAGRTIITWCKPFPELSGRDLDEVAAERGKSKYDVVPELQPAGAIYFMMDEPDVQRILAFGPTMIGSDGLPHDERPHPRLWGTFPRVLGHYARDLGLFPLETAVWKMTGLTAARFGLAGRGQLQAGYFADLVVFDPATVADTATFEHPTERAAGIHSVYVNGAPVWQEQAFTGQHAGRVLARTAA
modifications: Alcaligenes denitrificans subsp. xylosoxydans MI-4
D-aminoacylase activity of cell extract ([1]; cell extract of E. coli JM109 transformant): 34 U/mg
specific activity of the purified enzyme ([1]; purified enzyme, N-acetyl-D-tryptophan): 528 U/mg
activity to N-acetyl-L-tryptophan [2]: inactive
Activity of producing D-tryptophan [3]: 2.58
Activity of producing D-tryptophan [4]: 2.65
Yield of D-Trp ([5]; 12% N-Ac-DL-Trp): 9.4%
Yield of D-Trp ([5]; 15% N-Ac-DL-Trp): 3.5%
Yield of D-Trp ([5]; 17% N-Ac-DL-Trp): 1.8%
Yield of D-Trp ([5]; 20% N-Ac-DL-Trp): 0.5%
Yield of D-Trp ([5]; 22% N-Ac-DL-Trp): 0.5%
yield of D-tryptophan ([5]; at any substrate concentration (12% to 22%)): lower than 10%
activity to N-acetyl-D-tryptophan [6]: ≤ 20 U/mg
